Data taken from patent US20130045195.

Tests used:
[1] = target: T1, celiac disease relevant peptide PQQPQQSFPQQQPPF
T1 chain: PQQPQQSFPQQQPPF

[2] = target: T2, celiac disease relevant peptide LGQQQPFPPQQPYPQPQPF
T2 chain: LGQQQPFPPQQPYPQPQPF

[3] = target: T3, celiac disease relevant peptide QLPQQPQQF
T3 chain: QLPQQPQQF

Measured: degradation of peptide analyzed by reverse phase liquid chromatography (50 µg/mL peptide, 25 µg/mL enzyme, 37 °C, pH 4.5, 1 hr)

B1: XP-972061 (proline specific protease, LOC660762, similar to prolylcarboxypeptidase / thymus-specific serine protease) (protein)
chain: RIFRNGRMVGGNLGEPKCNCKESSIKEVQEEWFTQNLDHFNPTDETTWKQRFYSNDQFFDPKNGGPVFLMIGGEGEASIKWMTQGAWVNYAEKFGALMFQLEHRYYGKSHPTDDLSTQNLKYLTSQQALADLATFITAMNEKYSLPPDVKWIAFGGSYPGSLAAWLRFKYPHLVHGAMSASGPLLAQVDFKDYFRVIKESLATHSDDCVTAVQQGVDQIGVLLKQEIGQANLNELFKLCDPVQNSINNEKDISNLYETIADDFAGVVQYNKDNRVGSPAGANITIDVVCDIMVNQTIGPPVNRLAKVNEVLLSAYDQKCLDYNYDKMINNLRNVSWDSEASEGGRQWTYQTCTEFGFYQTSDYEPQIFGDQFSVDFFIQQCTDIFGSIYDEDFLNSATERTNTYYGGLDIEVSNVVFVHGSIDPWHALGITKTIDEEAPAIYIEGTAHCANMYPPADTDLPQLKEAREQILNLIGTWLAQ
completely proteolyzed: [1] | [2] | [3]
